This passage reports expression of the cell surface markers CD44, CD69 and CD25 on OT-1 cells after stimulation with irradiated CD80/EG7 results from patent publication US20090196877A1.

The target in the test is SIINFEKL/H-2 Kb (mouse) (UniProt P01901).

Turning to “OT-1 T cell Receptor (TCR) of OT-1 TCR transgenic T cells”, the expression of the cell surface markers CD44, CD69 and CD25 on OT-1 cells after stimulation with irradiated CD80/EG7 turned out to be 100%.
